Measurements from paper PMC3223566, “The Initiation Factor TFE and the Elongation Factor Spt4/5 Compete for the RNAP Clamp during Transcription Initiation and Elongation” (Molecular Cell, 2011).

What was measured:
[1] = target: T1, M. jannaschii RNA polymerase, wild type, reconstituted from 12 recombinant subunits (M. jannaschii, UniProt Q58443 1-78; Q57840 1-187); test: fluorescence polarisation; fluorescence anisotropy; RNAP added to labeled TFE^44*Cy3B (50 nM); apparent dissociation constant by direct fitting of the titration curves; conditions: both partners purified
T1 construct: RNA polymerase subunit Rpo1′, M. jannaschii; holds the clamp coiled-coil motif; RNA polymerase subunit Rpo2″, M. jannaschii; RNA polymerase subunit Rpo4 (stalk), M. jannaschii; RNA polymerase subunit Rpo5, M. jannaschii; RNA polymerase subunit Rpo7 (stalk), M. jannaschii; In PIC and TEC experiments the same RNAP stood with DNA, TBP and TFB, or with a DNA/RNA scaffold (see the assay's format); …

[2] = target: T2, RNAPΔRpo4/7, ten-subunit RNAP subassembly lacking Rpo4/7 (M. jannaschii, UniProt Q58443 1-78); test: as above; conditions: both partners purified
T2 construct: RNA polymerase subunit Rpo1′, M. jannaschii; holds the clamp coiled-coil motif; RNA polymerase subunit Rpo2″, M. jannaschii; RNA polymerase subunit Rpo5, M. jannaschii; As m6 without the chains Rpo4 and Rpo7; source: recombinant subunits, reconstituted in vitro without Rpo4/7; copies: + + + + + + + + +

- Kd [1]: 200 ± 10 nM
- Kd [2]: 1700 ± 150 nM
B1: TFE labeled with Cy3B at residue 44 (WH domain) (natural protein)
chain: MLNDPLVQEVLFNIFEGDEKGFEVIDVLLEKGETTEEEIAKELFVKLNVVRKLLYKLYDARLVDYKRWKDEDTNWYSYTWLPTLEKLPYVVKKKINELIKDLEKKLEFEKNNMFFFCPNCNVRFTFEEAMDYGFSCPGCGNMLQEFDNSELIKDLEEQIKFLKEELKNNPFLK
modifications: p-azido phenylalanine (APA) at position 44, derivatized with Cy3B
